Results taken from PMC11574045, “A cofactor-induced repressive type of transcription factor condensation can be induced by synthetic peptides to suppress tumorigenesis” (The EMBO Journal, 2024).

System: HEK293FT cells transfected with TF library
Assay: Screening of TF condensates based on fluorescent puncta
Format: cell-based
Conditions: Figure 1B numerical data; TF library screen, one value per transcriptional factor
In short: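 Each TF construct was introduced into HEK293FT cells using PEI at 4.8 μg/ml; glucose deprivation versus normal medium lasted 12 h. Automated confocal-style imaging of tagged TF staining, 50 fields per well, gave the puncta data.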

| Molecule | Z score of condensed fraction |
| --- | --- |
| ZSCAN1 (protein, UniProt Q8NBB4 1-408, looked up) Zinc finger and SCAN …: MLPRPKAPASPRRPQTPTPSEQDADPGPASPRDTEAQRLRFRQFQYHVASGPHLALGQLWTLCRQWLRPEARSKEQMLELLVLEQFLGALPSKMRTWVQSQGPRSCREAASLVEDLTQMCQQEVLVSLDSVEPQDWSFGEEEDGKSPRSQKEPSQASELILDAVAAAPALPEESEWLETTQLQQSLHTRAEAEAPRAPGLLGSRARLPLKPSIWDEPEDLLAGPSSDLRAEGTVISSPKGPSAQRISPRRRNRNTDQSGRHQPSLKHTKGGTQEAVAGISVVPRGPRGGRPFQCADCGMVFTWVTHFIEHQKTHREEGPFPCPECGKVFLHNSVLTEHGKIHLLEPPRKKAPRSKGPRESVPPRDGAQGPVAPRSPKRPFQCSVCGKAFPWMVHLIDHQKLHTAHGHM | 1.179 |
| ZSCAN10 (protein, UniProt Q96SZ4 1-780, looked up) Zinc finger and SCAN …: MLGESVPAAVEQEQLGEVKLEEEEAVSPEDPRRPESRLRPEVAHQLFRCFQYQEDMGPRASLSRLRELCGHWLRPALHTKKQILELLVLEQFLSVLPPHLLGRLQGQPLRDGEEVVLLLEGIHREPSHAGPLDFSCNAGKSCPRADVTLEEKGCASQVPSHSPKKELPAEEPSVLGPSDEPPRPQPRAAQPAEPGQWRLPPSSKQPLSPGPQKTFQALQESSPQGPSPWPEESSRDQELAAVLECLTFEDVPENKAWPAHPLGFGSRTPDKEEFKQEEPKGAAWPTPILAESQADSPGVPGEPCAQSLGRGAAASGPGEDGSLLGSSEILEVKVAEGVPEPNPELQFICADCGVSFPQLSRLKAHQLRSHPAGRSFLCLCCGKSFGRSSILKLHMRTHTDERPHACHLCGHRFRQSSHLSKHLLTHSSEPAFLCAECGRGFQRRASLVQHLLAHAQDQKPPCAPESKAEAPPLTDVLCSHCGQSFQRRSSLKRHLRIHARDKDRRSSEGSGSRRRDSDRRPFVCSDCGKAFRRSEHLVAHRRVHTGERPFSCQACGRSFTQSSQLVSHQRVHTGEKPYACPQCGKRFVRRASLARHLLTHGGPRPHHCTQCGKSFGQTQDLARHQRSHTGEKPCRCSECGEGFSQSAHLARHQRIHTGEKPHACDTCGHRFRNSSNLARHRRSHTGERPYSCQTCGRSFRRNAHLRRHLATHAEPGQEQAEPPQECVECGKSFSRSCNLLRHLLVHTGARPYSCTQCGRSFSRNSHLLRHLRTHARETLY | -0.1901 |
| ZXDA (protein, UniProt P98168 1-799, looked up) Zinc finger X-linked protein …: MEIPKLLPARGTLQGGGGGGIPAGGGRVHRGPDSPAGQVPTRRLLLPRGPQDGGPGRRREEASTASRGPGPSLFAPRPHQPSGGGDDFFLVLLDPVGGDVETAGSGQAAGPVLREEAKAGPGLQGDESGANPAGCSAQGPHCLSAVPTPAPISAPGPAAAFAGTVTIHNQDLLLRFENGVLTLATPPPHAWEPGAAPAQQPRCLIAPQAGFPQAAHPGDCPELRSDLLLAEPAEPAPAPAPQEEAEGLAAALGPRGLLGSGPGVVLYLCPEALCGQTFAKKHQLKMHLLTHSSSQGQRPFKCPLGGCGWTFTTSYKLKRHLQSHDKLRPFGCPAEGCGKSFTTVYNLKAHMKGHEQENSFKCEVCEESFPTQAKLGAHQRSHFEPERPYQCAFSGCKKTFITVSALFSHNRAHFREQELFSCSFPGCSKQYDKACRLKIHLRSHTGERPFLCDFDGCGWNFTSMSKLLRHKRKHDDDRRFMCPVEGCGKSFTRAEHLKGHSITHLGTKPFVCPVAGCCARFSARSSLYIHSKKHLQDVDTWKSRCPISSCNKLFTSKHSMKTHMVKRHKVGQDLLAQLEAANSLTPSSELTSQRQNDLSDAEIVSLFSDVPDSTSAALLDTALVNSGILTIDVASVSSTLAGHLPANNNNSVGQAVDPPSLMATSDPPQSLDTSLFFGTAATGFQQSSLNMDEVSSVSVGPLGSLDSLAMKNSSPEPQALTPSSKLTVDTDTLTPSSTLCENSVSELLTPAKAEWSVHPNSDFFGQEGETQFGFPNAAGNHGSQKERNLITVTGSSFLV | -0.8138 |
